Results taken from patent US20230365681A1 (CELGENE, published 2023).

Assays:
human CD47 on cells [1] = target: T1, human CD47 on cells (human, UniProt Q08722 19-323); assay: cell-based or functional assay
[2] = target: T2, human CD47 extracellular domain (human, UniProt Q08722 19-139); assay: column HUMAN CD47 KD (µM); no assay named on the sheet, SPR with the CD47 ECD per Example 4
T2 construct: extracellular domain; also called human CD47 ECD; Hu CD47

[3] = target: T2, human CD47 extracellular domain; assay: method not given; human CD47, form not stated there
human CD47 on cells [4] = target: T1, human CD47 on cells; assay: blocking of human SIRPα binding to OCI-Ly3 cells; competitor SIRPα; TPP-23, parental high-affinity anti-CD47 IgG1; OCI-Ly3 cells

T1 sequence (Q08722 19-323): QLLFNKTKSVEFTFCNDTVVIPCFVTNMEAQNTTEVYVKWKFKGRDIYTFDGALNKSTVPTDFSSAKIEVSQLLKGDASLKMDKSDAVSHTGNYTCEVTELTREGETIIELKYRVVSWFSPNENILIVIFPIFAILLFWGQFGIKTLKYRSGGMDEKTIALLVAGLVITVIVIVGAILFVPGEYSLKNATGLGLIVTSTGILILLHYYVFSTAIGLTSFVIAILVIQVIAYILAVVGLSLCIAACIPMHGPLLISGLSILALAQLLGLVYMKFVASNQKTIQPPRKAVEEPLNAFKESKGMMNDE
T2 sequence (Q08722 19-139 limits assumed): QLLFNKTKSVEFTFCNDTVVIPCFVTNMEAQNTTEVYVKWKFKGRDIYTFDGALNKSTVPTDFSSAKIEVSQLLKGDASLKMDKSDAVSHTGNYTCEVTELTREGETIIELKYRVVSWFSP

Binder	EC50 of macrophage phagocytosis of OCI-Ly3 cells, OCI-Ly3 Mφ EC50 (µg/mL) REPEAT (human CD47 on cells [1])	EC50 of macrophage phagocytosis of OCI-Ly3 cells, column OCI-Ly3 Mφ EC50 (human CD47 on cells [1])	Kd [2]	Kd [3]	IC50 (human CD47 on cells [4])
TPP-1361 (bispecific antibody, human IgG1, kappa, Four-chain IgG1 heterodimer; also called CD47xCD20 bispecific) light 1: NIQMTQSPSSLSASVGDRVTITCQASQDIHRYLSWFQQDPGTVPQHLIYRESRFVDGVPSRFSGSGSGTEFTLTISSLQPEDFATYYCLQYDEFPYTFGGGTKVEIKRTVAAPSVFIFPPSDEELKSGTASVVCWLNNFYPREAKVQWKVDNALQSGNSEESVTEQDSKDSTYSLSSTLELSKADYEKHKVYACEVTHQGLSSPVTKSFNRGEC heavy 1: QMQLVQSGAEVKKPGSSVKVSCKASGFNIKDYYLHWVRQAPGQGLEWMGWIDPDQGDTYYAQKFQGRVTITRDRSTSTAYMELASLTAEDTAVYYCNAAYGESSYPMDYWGQGTLVTVSSASTKGPSVFPLAPSSKSTSGGTAALGCLVKDYFPEPVTVSWNSGALTSGVHTFPAVLKSSGLYSLSSVVTVPSSSLGTQTYICNVNHKPSNTKVDKKVEPKSCDKTHTCPPCPAPELLGGPSVFLFPPKPKDTLMISRTPEVTCVVVDVSHEDPEVKFNWYVDGVEVHNAKTKPREEQYNSTYRVVSVLTVLHQDWLNGKEYKCKVSNKALPAPIEKTISKAKGQPREPQVYVLPPSREEMTKNQVSLLCLVKGFYPSDIAVEWESNGQPENNYLTWPPVLDSDGSFFLYSKLTVDKSRWQQGNVFSCSVMHEALHNHYTQKSLSLSPGK light 2: QIVLSQSPAILSASPGEKVTMTCRASSSVSYIHWFQQKPGSSPKPWIYATSNLASGVPVRFSGSGSGTSYSLTISRVEAEDAATYYCQQWTSNPPTFGGGTKLEIKRTVAAPSVAIFPPSDERLKSGTASVVCVLNNFYPREAKVQWKVDNALQSGNSQESVTEQDSKDSTYSLSSRLTLSKADYEKHKVYACEVTHQGLSSPVTKSFNRGEC heavy 2: QVQLQQPGAELVKPGASVKMSCKASGYTFTSYNMHWVKQTPGRGLEWIGAIYPGNGDTSYNQKFKGKATLTADKSSSTAYMQLSSLTSEDSAVYYCARSTYYGGDWYFNVWGAGTTVTVSAASTKGPSVFPLAPSSKSTSGGTAWLGCEVTDYFPEPVTVSWNSGALTSGVHTFPAVLESSGLYSLSSVVTVPSSSLGTQTYICNVNHKPSNTKVDKKVEPKSCDKTHTCPPCPAPELLGGPSVFLFPPKPKDTLMISRTPEVTCVVVDVSHEDPEVKFNWYVDGVEVHNAKTKPREEQYNSTYRVVSVLTVLHQDWLNGKEYKCKVSNKALPAPIEKTISKAKGQPREPQVYVYPPSREEMTKNQVSLTCLVKGFYPSDIAVEWESNGQPENNYKTTPPVLDSDGSFALVSKLTVDKSRWQQGNVFSCSVMHEALHNHYTQKSLSLSPGK	0.45 µg/mL	0.5 µg/mL	2530 nM		
TPP-1367 (bispecific antibody, human IgG1, kappa, IgG1 1+1 heterodimer; also called CD47/CD20 TPP1367; CD47xCD20 bispecific) anti-CD47 light chain: NIQMTQSPSSLSASVGDRVTITCRASQDIHRYLSWFQQKPGKVPKHLIYRANRLVSGVPSRFSGSGSGTEFTLTISSLQPEDFATYYCLQYDEFPYTFGGGTKVEIKRTVAAPSVFIFPPSDEELKSGTASVVCWLNNFYPREAKVQWKVDNALQSGNSEESVTEQDSKDSTYSLSSTLELSKADYEKHKVYACEVTHQGLSSPVTKSFNRGEC anti-CD47 heavy chain: QMQLVQSGAEVKKPGSSVKVSCKASGFNIKDYYLHWVRQAPGKGLEWMGWIDPDQGDTYYAQKFQGRVTITRDRSTSTAYMELRSLRAEDTAVYYCNAAYGESSYPMDYWGQGTLVTVSSASTKGPSVFPLAPSSKSTSGGTAALGCLVKDYFPEPVTVSWNSGALTSGVHTFPAVLKSSGLYSLSSVVTVPSSSLGTQTYICNVNHKPSNTKVDKKVEPKSCDKTHTCPPCPAPELLGGPSVFLFPPKPKDTLMISRTPEVTCVVVDVSHEDPEVKFNWYVDGVEVHNAKTKPREEQYNSTYRVVSVLTVLHQDWLNGKEYKCKVSNKALPAPIEKTISKAKGQPREPQVYVLPPSREEMTKNQVSLLCLVKGFYPSDIAVEWESNGQPENNYLTWPPVLDSDGSFFLYSKLTVDKSRWQQGNVFSCSVMHEALHNHYTQKSLSLSPGK anti-CD20 light chain: QIVLSQSPAILSASPGEKVTMTCRASSSVSYIHWFQQKPGSSPKPWIYATSNLASGVPVRFSGSGSGTSYSLTISRVEAEDAATYYCQQWTSNPPTFGGGTKLEIKRTVAAPSVAIFPPSDERLKSGTASVVCVLNNFYPREAKVQWKVDNALQSGNSQESVTEQDSKDSTYSLSSRLTLSKADYEKHKVYACEVTHQGLSSPVTKSFNRGEC anti-CD20 heavy chain: QVQLQQPGAELVKPGASVKMSCKASGYTFTSYNMHWVKQTPGRGLEWIGAIYPGNGDTSYNQKFKGKATLTADKSSSTAYMQLSSLTSEDSAVYYCARSTYYGGDWYFNVWGAGTTVTVSAASTKGPSVFPLAPSSKSTSGGTAWLGCEVTDYFPEPVTVSWNSGALTSGVHTFPAVLESSGLYSLSSVVTVPSSSLGTQTYICNVNHKPSNTKVDKKVEPKSCDKTHTCPPCPAPELLGGPSVFLFPPKPKDTLMISRTPEVTCVVVDVSHEDPEVKFNWYVDGVEVHNAKTKPREEQYNSTYRVVSVLTVLHQDWLNGKEYKCKVSNKALPAPIEKTISKAKGQPREPQVYVYPPSREEMTKNQVSLTCLVKGFYPSDIAVEWESNGQPENNYKTTPPVLDSDGSFALVSKLTVDKSRWQQGNVFSCSVMHEALHNHYTQKSLSLSPGK	0.046 µg/mL	0.064 µg/mL	430 nM		
CC-90002 (antibody, V domains shown, also called anti-CD47 monoclonal antibody CC-90002) VH: QMQLVQSGAEVKKTGSSVKVSCKASGFNIKDYYLHWVRQAPGQALEWMGWIDPDQGDTEYAQKFQDRVTITRDRSMSTAYMELSSLRSEDTAMYYCNAAYGSSSYPMDYWGQGTTVTVSS VL: NIQMTQSPSAMSASVGDRVTITCKASQDIHRYLSWFQQKPGKVPKHLIYRANRLVSGVPSRFSGSGSGTEFTLTISSLQPEDFATYYCLQYDEFPYTFGGGTKVEIK				0.54 nM	
TPP-23 (408_437 Fab with IgG1) (antibody, V domains shown, The crystal structure was made with an anti-CD47 Fab of this antibody; also called parental CD47 mAb) VH: QMQLVQSGAEVKKPGSSVKVSCKASGFNIKDYYLHWVRQAPGKGLEWMGWIDPDQGDTEYAQKFQGRVTITRDRSTSTAYMELRSLRAEDTAVYYCNAAYGSSSYPMDYWGQGTLVTVSS VL: NIQMTQSPSSLSASVGDRVTITCRASQDIHRYLSWFQQKPGKVPKHLIYRANRLVSGVPSRFSGSGSGTEFTLTISSLQPEDFATYYCLQYDEFPYTFGGGTKVEIK					0.11 nM
